Among the data in article PMC11081419 are Kd values, retold here.

In the assay the target is CCL18 (human) (UniProt P55774). The experiment in a line: SPR. The settings on record: domain or fragment.
Sequence of CCL18 (human) (P55774 21-89): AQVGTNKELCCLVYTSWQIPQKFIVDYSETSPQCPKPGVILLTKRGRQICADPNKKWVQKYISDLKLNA

Sequence of EVA‐ACA1001(ΔN) (A0A023FFD0 29-136, stated change not applied): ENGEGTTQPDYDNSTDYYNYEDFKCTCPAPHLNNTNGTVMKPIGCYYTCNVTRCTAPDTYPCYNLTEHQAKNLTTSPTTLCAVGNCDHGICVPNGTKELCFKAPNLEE

In the case of “EVA‐ACA1001(ΔN) (from UniProt A0A023FFD0)”, the Kd was less than 0.1 nM.
